The record followed here is paper doi:10.1101/212837 (bioRxiv, 2017).

This experiment deals with human acid α-glucosidase (GAA), 123-200 fragment of the protease-treated enzyme (human, UniProt P10253 123-200). The experiment in a line: crystal structure.

B1: human acid α-glucosidase (GAA), 80-115 fragment of the protease-treated enzyme (domain or fragment)
chain: not shown
B1: the binding result is on record as “binds”.
